Source: the DeepSol protein solubility set

Assay: soluble on expression in E. coli; label from the status in PepcDB or PDB records

Sequence | soluble on expression in E. coli
MSLTSYHSHPPKAYRRFESVCTQAPNAIAVVDEGKLVTYQQLQTQVLERSEALIRQGLADHPYMPLMANRCLEYLITMLACCKLGITYVSIEPGTPSKRLIAVLEQLGCNHLLLLGQPTDLRPDPTLTCFRLDDCGTLCYDGPALRPPIRRRLDDASVITVMFTSGTTGLPKGVRISHDGLLNLVDNVQQQVQGKPRSYVHHSSIGFDAALFEVWVPLLTGACVTLQPGAFNIDALDHCVRAASCDVLLLTTSLFHLVAQHRLSMLDAVRVLYVGGEVLKPVHARALLLANPRITLVNGYGPTENTVFSTWYSLNKPEDAERDVMPIGQFLHQVYGKIVDAKLQEVEVGTPGELLLTGANLALGYLDDALTQTRFLQLPEGTYYRTGDYVIEDEHGMLFYQGRIDEQVKIKGFRVEIAEVEHALTQLPGVAQAVVQAHVMNDLEKSLHAFIVLRHGSPTIEESKLMSLLGDRLPHYMVPRRIHYLAELPLTANGKVDKRSLQPPEKAAAAPPQAGSAVLDIWSGILGTRNLQLEHSIYGYGASSLSVVMAHSRINEILGRTTPFDEVARLSTFQEWVQYYATHEDPVTSLRSQHGNEGHHHHHH | not soluble
SAFQAAAARLGAPVSHDFCAISLSDLMTPWEVIEKRIEAAASADFVTAVYNPRSRDRYWQIHRFRELFLRHRSPSTPVGIVRNVTRKDESVVLTTLGEFDPDSLDMFTMMLVGNSTTF | not soluble
AIAKETEQVSEAPHGLEGAWLDLTNRVRVSGDTVEACSAFSIGPPRCRWLLQATDRGVNCAALDHYVPHICGTHTETVYHIAHHRYIKRAVCEIPFFRFHKARIQVCTAKIACTEQVLPSADTDYPCLEPNDLIVGPSALNRAPRYTRAQDSTIEALILIVVGPDGTSDWRDGKLDDRPPYLTPAAIESLATRYPNMRHLLTNLPSVDRRRDGGLVRSHRAFFATDFAGDGTPSESPQKTITELLRVPPDWQLYDDAEGVVCISLAPIEGLDAIPSSVYFKSH | soluble
MNLRGILPFAHDTLRKVVRSGDYVIDATCGNGHDTLLLAELVGVNGHVLGFDIQQMAIDATKTRLENAGVASQVELVCASHALIPEYATKPVRAAIFNLGYLPGGDKEITTTADSTLESIGHLMQLLEVGGVIIIVIYHGHPAGKVEKDAVLTFCEAIPQQDFHVLSYNFINQKNDAPFVIIIEKRKPLEHHHHHH | not soluble
MVATVVNVQVKNEEKIETAPKKVVFDTKNLNLWYGEDHALKDINLSIHENEVTAIIGPSGCGKSTYLKTLNRMVELVPIVRTTGVIEYRERNIFDKSYPVEELRTHVGMVFQKPNPFPKSIYENVAYGPKIHGISDKKTLDEIVEKSLRGAAIWDELKDRLHDNAYGLSGGQQQRLCIARCLAIEPDVILMDEPTSALDPISTLKVEELIQELKKDFSIVIVTHNMQQAARISDKTAFFLSGEVVEYTDTNKLFTTPSDKRTEDYITGRFG | not soluble
HKRPVPAKRYDNVTILFSGIVGFNAFCSKHASGEGAMKIVNLLNDLYTRFDTLTDSRKNPFVYKVETVGDKYMTVSGLPEPCIHHARSICHLALDMMEIAGQVQVDGESVQITIGIHTGEVVTGVIGQRMPRYCLFGNTVNLTSRTETTGEKGKINVSEYTYRCLMSPENSDPQFHLEHRGPVSMKGKKEPMQVWFLSRKNTGTEETKQDDDAENLYFQ | soluble
MMEKNNEVIQTHPLVGWDISTVDSYDALMLRLHYQTPNKSEQEGTEVGQTLWLTTDVARQFISILEAGIAKIESGDFPVNEYRRH | not soluble
MGGSHHHHHHGMASALASEAPSPPRSPPPPTSPEPELAQLRRKVEKLERELRSCKRQVREIEKLLHHTERLYQNAESNNQELRTQVRGPPQPRAPSSPGEAFEARDSLGRGPWQGLRTTVEYLK | not soluble
EIQLQQSGPELVKPGASVKVSCKASGYSFTDYFIYWVKQSHGKSLEWIGDIDPYNGDTSYNQKFRDKATLTVDQSSTTAFMHLNSLTSEDSAVYFCARGLRFWGQGTLVTVSAAKTTPPSVYPLAPGSAAQTNSMVTLGCLVKGYFPEPVTVTWNSGSLSSGVHTFPAVLQSDLYTLSSSVTVPSSTWPSETVTCNVAHPASSTKVDKKIVPRDCG | soluble
GMSNEHQLLVGLLKKLKDDALILPTLPEVAMRVQEVVGRPDSSLKQVAEIIGQDAAISARIIKVANSALYSRGVPAENINSAVTRIGLTQIKSIATSVAMEQLFISTNEMVWEVMDEVWRTSIDVTAAACSLLQIYNKKHPGSGLNYDTLTLAGLVHNIGALPVLTEAEAHPEMFTTIEHLRSLVRKMQGPIGRAVLKSWDFAPEVMEVVERWADLPYLGDHVSYLDFIRAAAFYTGELRAGNELEQRLDVFVKRGLPVSPEDLGSDAFLDSYHSIKASYE | soluble
METSDERLAGAAAEGDRGAFALLVERHYDRIFGLSWRLTGSRTEAEDLAQDICAALPMKLRGWRGEARFTTWLYRVVVNASHDLRRRQSAHSRAAAGWGDWELARQDEIGEARAAEEWLAAAMTALPVELRDTVALVLGEEMTQAEAGAVLGLAEGTVAWRMSEVKKRLRAMALREARA | not soluble
MTVTLAGNPIEVGGHFPQVGEIVENFILVGNDLADVALNDFASKRKVLNIFPSIDTGVCATSVRKFNQQAAKLSNTIVLCISADLPFAQARFCGAEGIENAKTVSTFRNHALHSQLGVDIQTGPLAGLTSRAVIVLDEQNNVLHSQLVEEIKEEPNYEAALAVLA | soluble
MGSDKIHHHHHHMDSSAAFSNPTKLRADLLRGRLDVSVDSSTIAPDSLFGFAERRNPKRAFLFVSRVLGRHIPARPSVMLKSFQDLAHKIPVDLPGPVLVIGMAETAVGLGAGVHRAYSETHSDALYLVSTRHPTGTELFARFEEEHSHASAHLIHLPADPALRDMMLGARSLVLVDDEASTGKTFINLHQALVEAGLSKIERVVTCVLTDWSAGAVSTSMGAVAEQVSLLQGSYSFDEDVSAPLPDMPEVGTVAMGDWPLLTANDWGRMGVLAVADTLAPGLTVNKGERVLVVGTSEFVWRPFLLAERLEKAGADVHFSSTSRSPIALGHAIDHALSFSDNYGLGIPNFLYNVRPGQFDRVLICTETPRQAVPAELIEALNAEVICDE | not soluble
MKCPRCGREYISSIPPFCICGEELEITYDYSSVDVRKWKRRNPGVWRYKELLPEVKKIITLQEGGTPLIKARISEKINVDVYIKDETRNPTGSFRDRLATVAISYGLPYASNGFIVASDGNAAASVAAYSARAEKECFVVVPRKVDKGKLIQMIAFGARIIRYGDSVDEAIEYARELSKLNGLYNVTPEDNIIGLEGQKTIAFELWEEINPTHVIVPTGSGSYIYSIYKGFKELIKIGVLEKMPRLIAVQTERCNPIAAEILGLKKECKETKALGLYVKNPVMKSRVIRAIKESGGTAVVVNENDIITGEKLLANEGIFAELSSAVVMPALLSLVEKGIIEKGDKVVLVVTGSGLKIGEGGREKFSIGGTKLEILKILEEREMYAYEIWQALGKPLKYQAVHQHIKELQELGLIKEAYRKGKRIYYKLTERGRRLIENLE | soluble
MISYGELIRQIRQSKKISQKEVYTGVISKSYAIEFEKGTHAISSILLEKIVTKLMVSMEEFFFMYHQEELPEKEDFWEAYERACKTDEIAIWELLYQKISSEEGKINQVKSAAIKLELDHIKGKQVMDKKVVRILENYLIEAVFWTLEDIFLFTRMLPYLSLKSRVPFYYKLLNTLDRYRHFERGRRILQTAIASIIDDFIEKNEIEHMELMIRSLKKISDDCEGAYFKILCMYYHGIIERGEGAEIKQAIAILRVLGYENKALKYEAMYRQFSLKATI | not soluble
MFRAMSTRKIHGGYEKLGDEEARLKRVSSVPASVYGHSRNPVQEVKKTPTAKPTGGSVHPLFSFFDVHFQRKKKNTAKKKSLATAKPEFARYMEYVREGGVWDPSSNAPVIHYR | not soluble
GPGSMEFSGSTLSVVEVEHTVRQLRPFPLQDIGTAEWKNQREAVERLNMCTHSNAVLKKDDTVKAFLIEHEKLPVLLHELLVMEVWRQRVLPLIKDQIVQHPAGIYMYVQYEMVLLNLFECIAFHEEVVVALDEDVLELIDYCWRQASRLFAEQNVNEVQSKPTARDVSNAANTVEEVLKSADRQMLHAIYQRAMASLSILWFIIDRLNQLPLAASNSVLVKNDLILGLTEVMLLQPWLRRSSEATQKFFNGEFKDIPRADVLLVCTPEAHTWFSLHKLLCDPECRRRYSYTQSKKELILRIRHFLNDTLVDQIPALASLQRALEELSFLQPPSGTEEKFKSTLTIEQVPRIMTLVEVERKGSWDDLASTLRAMLQDPSVRNEDAMRLSRIFDEMFSDQLK | not soluble
